Experimental data taken from PMC6847799, “A global functional analysis of missense mutations reveals two major hotspots in the PALB2 tumor suppressor” (Nucleic Acids Research, 2019).

Target: T1, GAL4DBD-BRCA1 wild-type (aa 1315–1863) (UniProt P38398 1315-1863)
T1 construct: BRCA1, aa 1315-1863; bait of the mammalian two-hybrid; source: HEK293FT, transfected (mammalian two-hybrid fusion)
Assay: two-hybrid; mammalian two-hybrid in HEK293FT cells: VP16 AD-PALB2 N- or C-terminal construct (prey) co-transfected with GAL4DBD-BRCA1 or GAL4DBD-BRCA2 (bait), pG5Luc reporter and pGR-TK internal control; dual-luciferase read 24 h post-transfection; mean percentage luciferase activity of 3 independent experiments
Conditions: partners not purified

T1 sequence (P38398 1315-1863): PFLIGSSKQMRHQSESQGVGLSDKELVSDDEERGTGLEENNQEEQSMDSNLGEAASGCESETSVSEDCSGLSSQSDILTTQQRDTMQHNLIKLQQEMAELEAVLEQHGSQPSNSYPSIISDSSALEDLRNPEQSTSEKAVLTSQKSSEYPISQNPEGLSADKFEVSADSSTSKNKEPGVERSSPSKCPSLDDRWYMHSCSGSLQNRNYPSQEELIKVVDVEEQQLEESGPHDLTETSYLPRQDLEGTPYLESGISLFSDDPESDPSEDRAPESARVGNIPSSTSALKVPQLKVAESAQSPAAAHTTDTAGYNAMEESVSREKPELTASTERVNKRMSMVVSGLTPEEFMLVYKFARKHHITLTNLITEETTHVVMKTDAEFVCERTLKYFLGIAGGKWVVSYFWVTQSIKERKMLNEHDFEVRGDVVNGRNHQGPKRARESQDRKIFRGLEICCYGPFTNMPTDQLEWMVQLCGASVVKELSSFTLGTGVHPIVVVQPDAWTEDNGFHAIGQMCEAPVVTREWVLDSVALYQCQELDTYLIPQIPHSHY

fold increase of luciferase-reporter activity over BRCA1 alone: 2 fold
B1: VP16 AD-PALB2 N-terminal wild-type (aa 1–319) (domain or fragment, human, UniProt Q86YC2 1-319, looked up)
chain: MDEPPGKPLSCEEKEKLKEKLAFLKREYSKTLARLQRAQRAEKIKHSIKKTVEEQDCLSQQDLSPQLKHSEPKNKICVYDKLHIKTHLDEETGEKTSITLDVGPESFNPGDGPGGLPIQRTDDTQEHFPHRVSDPSGEQKQKLPSRRKKQQKRTFISQERDCVFGTDSLRLSGKRLKEQEEISSKNPARSPVTEIRTHLLSLKSELPDSPEPVTEINEDSVLIPPTAQPEKGVDTFLRRPNFTRATTVPLQTLSDSGSSQHLEHIPPKGSSELTTHDLKNIRFTSPVSLEAQGKKMTVSTDNLLVNKAISKSGQLPTSS
notes: PALB2 (1186-amino acid protein), human, aa 1-319; cloned in pVP16 downstream of the VP16 AD cassette; prey; also called PALB2 WT; PALB2 N-terminal construct; source: HEK293FT, transfected (mammalian two-hybrid fusion)
